Reference: the supplement of paper PMC7125110
± gives the standard error. For part of these data: Fewer inactive variants are shown than the library holds.

B1: glmS ribozyme (parent)
chain: AUAAAAGCGCCAGAACUACAGAAAUGUAGUUGACGAGGAGGAGGUUUAUCGAAUUUUCGGCGGAUGCCUCCAAA

Assays:
Settings in all cases: with glucosamine-6-phosphate
glucosamine-6-phosphate [1] = variants of: B1; assay: kcat; higher = faster cleavage; RNA array
In short: (§1)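 Tracking of barcoded ribozyme variants used a hybridised Cy3 probe at 37 °C, after in situ transcription by E. coli RNA polymerase on sequenced MiSeq chips. The flowed solution held 40 μM to 10 mM glucosamine-6-phosphate in HEPES/KCl/Mg(OAc)2 buffer, and imaging ran over ~14 h. kobs was taken from exponential decay fits of normalised per-tile medians, and kcat and KM from weighted Michaelis–Menten fits.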

glucosamine-6-phosphate [2] = variants of: B1; assay: KM; higher = weaker cofactor use; RNA array
In short: as §1

glucosamine-6-phosphate [3] = variants of: B1; assay: self-cleavage kobs at 2500 uM GlcN6P; higher = faster cleavage; RNA array
In short: as §1

glucosamine-6-phosphate [4] = variants of: B1; assay: self-cleavage kobs at 10000 uM GlcN6P; higher = faster cleavage; RNA array
In short: as §1

glucosamine-6-phosphate [5] = variants of: B1; assay: self-cleavage kobs at 640 uM GlcN6P; higher = faster cleavage; RNA array
In short: as §1

glucosamine-6-phosphate [6] = variants of: B1; assay: self-cleavage kobs at 160 uM GlcN6P; higher = faster cleavage; RNA array
In short: as §1

glucosamine-6-phosphate [7] = variants of: B1; assay: self-cleavage kobs at 40 uM GlcN6P; higher = faster cleavage; RNA array
In short: as §1

Variant | kcat (glucosamine-6-phosphate [1]) [s⁻¹] | KM (glucosamine-6-phosphate [2]) [µM] | self-cleavage kobs at 2500 uM GlcN6P (glucosamine-6-phosphate [3]) [s⁻¹] | self-cleavage kobs at 10000 uM GlcN6P (glucosamine-6-phosphate [4]) [s⁻¹] | self-cleavage kobs at 640 uM GlcN6P (glucosamine-6-phosphate [5]) [s⁻¹] | self-cleavage kobs at 160 uM GlcN6P (glucosamine-6-phosphate [6]) [s⁻¹] | self-cleavage kobs at 40 uM GlcN6P (glucosamine-6-phosphate [7]) [s⁻¹]
C10U A12C | 5.93e-05 ± 3.7e-06 | 3450 ± 580 | 2.54e-05 ± 8e-06 | 4.39e-05 ± 8.1e-06 | – | – | –
A6C A12C U57G | 1.28e-05 ± 2.4e-06 | – | – | < 1e-05 | – | – | –
C11A C68U | 5.04e-05 ± 2.5e-06 | 459 ± 170 | 3.54e-05 ± 1.4e-05 | 4.9e-05 ± 6.3e-06 | 3.2e-05 ± 1.4e-05 | – | –
A6C C70U | 0.000107 ± 2.6e-06 | 1350 ± 110 | 7.26e-05 ± 9.6e-06 | 9.39e-05 ± 7.1e-06 | 3.3e-05 ± 6.9e-06 | – | –
A6C C70A | 1.39e-05 ± 2.5e-06 | – | – | – | – | – | –
G7U U55A | < 1e-05 | – | < 1e-05 | – | < 1e-05 | < 1e-05 | –
G7A G37C U47A | 1.02e-05 ± 2.4e-06 | – | – | – | – | < 1e-05 | –
C10U U47G | < 1e-05 | – | – | – | – | < 1e-05 | –
A6C U55G | 0.00017 ± 7.1e-06 | 8250 ± 640 | 4.01e-05 ± 9.6e-06 | 9.3e-05 ± 1.1e-05 | – | – | –
A6U C50G A52U C61G C68U | 3.87e-05 ± 1.1e-05 | – | – | 4.51e-05 ± 1.6e-05 | – | – | –
A6U G60C C67A | < 1e-05 | – | – | < 1e-05 | < 1e-05 | < 1e-05 | –
C10U A15G C68U | 1.81e-05 ± 6.2e-06 | – | – | – | – | – | –
C8U G51U C70U | 1.2e-05 ± 2.2e-06 | – | – | – | – | – | < 1e-05
G7U C8G C50A | 2.71e-05 ± 5.9e-06 | – | – | – | – | – | –
C10A | < 1e-05 | 559 ± 95 | – | < 1e-05 | – | – | –
C10U | 2.6e-05 ± 1.4e-06 | 499 ± 190 | 2.39e-05 ± 1.5e-06 | 2.41e-05 ± 1e-06 | 1.32e-05 ± 2e-06 | – | < 1e-05
A6U A15G | 0.000987 ± 0.00028 | – | 0.0002 ± 3.8e-05 | 0.000441 ± 5.1e-05 | 4.1e-05 ± 1.2e-05 | – | –
C10G U49A | 1.12e-05 ± 2.4e-06 | – | – | – | < 1e-05 | – | < 1e-05
C10G U49C | < 1e-05 | – | < 1e-05 | < 1e-05 | – | < 1e-05 | < 1e-05
A6C C71U | 9.59e-05 ± 6.3e-06 | 1150 ± 280 | 7.07e-05 ± 9.3e-06 | 8.35e-05 ± 9.7e-06 | 2.89e-05 ± 1.2e-05 | – | –
G7U C16A G37A A53U C71A | 1.25e-05 ± 4.6e-06 | – | – | – | – | – | –
C11A C61A | < 1e-05 | – | – | – | – | – | –

Variant | kcat (glucosamine-6-phosphate [1]) [s⁻¹] | KM (glucosamine-6-phosphate [2]) [µM] | self-cleavage kobs at 2500 uM GlcN6P (glucosamine-6-phosphate [3]) [s⁻¹] | self-cleavage kobs at 10000 uM GlcN6P (glucosamine-6-phosphate [4]) [s⁻¹] | self-cleavage kobs at 640 uM GlcN6P (glucosamine-6-phosphate [5]) [s⁻¹] | self-cleavage kobs at 160 uM GlcN6P (glucosamine-6-phosphate [6]) [s⁻¹] | self-cleavage kobs at 40 uM GlcN6P (glucosamine-6-phosphate [7]) [s⁻¹]
A6G G13A | < 1e-05 | – | – | – | < 1e-05 | < 1e-05 | < 1e-05
G9A C61U | 0.000168 ± 1.3e-05 | 1390 ± 290 | 0.000144 ± 5.4e-05 | 0.000146 ± 1.8e-05 | 5.18e-05 ± 1.1e-05 | – | –
A6C U65A | 1.38e-05 ± 2.5e-07 | 3180 ± 190 | – | – | – | – | –
C11U A14U | 0.00134 ± 0.00035 | 2130 ± 810 | 0.00104 ± 0.00013 | 0.000984 ± 0.00014 | 0.000266 ± 3.5e-05 | 9.95e-05 ± 1.2e-05 | –
C10U A52G | < 1e-05 | – | – | – | – | – | –
A6G G37C | < 1e-05 | – | – | – | – | < 1e-05 | –
A6C G59A | < 1e-05 | – | – | < 1e-05 | – | – | < 1e-05
C11G G32A U69G | 3.08e-05 ± 7e-06 | – | – | – | – | – | –
C10A A12C U56A | 0.000168 ± 4.1e-05 | – | 0.000306 ± 0.00011 | 0.00015 ± 2.7e-05 | 7.12e-05 ± 3e-05 | – | –
A6U A15G U30C | 0.000345 ± 9.4e-05 | – | 0.00023 ± 6.3e-05 | 0.000255 ± 5.8e-05 | 5.44e-05 ± 2e-05 | – | –
A6C C68G | < 1e-05 | – | – | – | < 1e-05 | – | < 1e-05
A6C C68U | 4.51e-05 ± 1.8e-06 | 534 ± 140 | 3.96e-05 ± 9.1e-06 | 4.19e-05 ± 6.8e-06 | – | – | –
A6C G66A | 8.29e-05 ± 2.9e-06 | 3320 ± 320 | 3.57e-05 ± 1.3e-05 | 6.22e-05 ± 1.2e-05 | – | – | –
C10U A14C | < 1e-05 | – | – | – | – | – | < 1e-05
A6U A14G | 0.000657 ± 7.8e-05 | 2280 ± 480 | 0.000414 ± 8.3e-05 | 0.000513 ± 8.4e-05 | 0.000135 ± 2.3e-05 | 4.93e-05 ± 2.3e-05 | –
C11G G59U C68A | 1.43e-05 ± 2.1e-06 | – | – | – | – | – | –
C8U A42U | < 1e-05 | – | – | – | < 1e-05 | – | –
A6C G29A | < 1e-05 | – | – | – | – | – | < 1e-05
C8U C50G | 0.000208 ± 1.2e-05 | 31 ± 8 | 0.000229 ± 3.5e-05 | 0.000178 ± 7.7e-05 | 0.000188 ± 3.3e-05 | 0.000167 ± 2.4e-05 | 0.00012 ± 2e-05
A6G A15C | 7.64e-05 ± 3.5e-06 | 1700 ± 240 | 4.69e-05 ± 9.3e-06 | 6.45e-05 ± 1.1e-05 | – | – | < 1e-05
A6U U30C | < 1e-05 | – | < 1e-05 | – | < 1e-05 | – | –
